Measurements published in paper PMC5904244, “Oligomeric states in sodium ion-dependent regulation of cyanobacterial histidine kinase-2” (Protoplasma, 2017).
“And” between values parts separate entries of the source, which are not always exact repeats. Identical values can stand only once.

Tests used:
[1] = molecular target: the molecule itself; experiment: SEC; Superdex 200 10/300GL, 20 mM Tris-HCl pH 7.6, 10 mM NaCl (low salt); apparent molecular masses from a calibration curve
[2] = molecular target: the molecule itself; experiment: SEC; Superdex 200 10/300GL, 20 mM Tris-HCl pH 7.6, 500 mM NaCl (high salt); apparent molecular masses from a calibration curve
[3] = molecular target: the molecule itself; experiment: negative-stain transmission electron microscopy, single-particle analysis; dilution series on carbon-coated grids, 2% uranyl acetate; class averages assigned subjectively to oligomeric families; buffer and salt not stated
[4] = molecular target: the molecule itself; experiment: cross-linking; DSP (1-11 mM; 2 mM in later experiments), 2-50 uM Hik2, 25 mM HEPES-NaOH pH 7.5, 5 mM KCl, 5 mM MgCl2, 23 °C, 10 min; no NaCl treatment; non-reducing 10% SDS-PAGE, Coomassie

B1: full-length Thermosynechococcus elongatus BP-1 Hik2 (enzyme, UniProt Q8DMC5 1-385, looked up)
chain: MLWPASEEFAALCRTQLELVVNSLGASSLAVYLSETLNDSPSWSPVAVYPEAASLLSLAIPPTLPPPTQVPETSLSHYPQQVVSSLANQLILPLMYQNWVLGVLVAQRQHRPWLAAEQAQLQQVAQTLAIACVLDQRQQWLSHSPAQPLDQRQQRFDDLLHQLRNPVAAIRTFVKLLLKRLEPDHKGRPLAEGIAKETERLMALLEDYRQQRNDIPALTGSQPLPLAGKPLDLAETLLPLISAAQARAEMEGKTFVVEIPPQLPPIWLEERVLQEVVGNLLDNAFKYTPKGGTIGLRLMLSSPALELTVWDTGCGIPKEAQPRLFERGYRGVQADSGIEGSGLGLAIAQDLLRPYGLSLRVTSPYAGDRGTAFTLAIPWQMKVEP
notes: Histidine kinase 2 (Hik2), tlr0195, Thermosynechococcus elongatus BP-1, full length; calculated molecular mass 44.2 kDa; The forward primer has catatgATG, so one extra N-terminal Met may be present; A C-terminal His tag from the vector is surmised
B1 was tested, and the “stoichiometry N” value [1] was 6 and the “stoichiometry N” value [2] was 4.

B2: truncated core kinase domain of Thermosynechococcus elongatus BP-1 Hik2 containing only the DHp and CA subdomains (domain or fragment, UniProt Q8DMC5 142-385, looked up)
chain: SHSPAQPLDQRQQRFDDLLHQLRNPVAAIRTFVKLLLKRLEPDHKGRPLAEGIAKETERLMALLEDYRQQRNDIPALTGSQPLPLAGKPLDLAETLLPLISAAQARAEMEGKTFVVEIPPQLPPIWLEERVLQEVVGNLLDNAFKYTPKGGTIGLRLMLSSPALELTVWDTGCGIPKEAQPRLFERGYRGVQADSGIEGSGLGLAIAQDLLRPYGLSLRVTSPYAGDRGTAFTLAIPWQMKVEP
notes: Hik2 (tlr0195), Thermosynechococcus elongatus BP-1, kinase domain (DHp and CA), amino acids 142-386; calculated molecular mass 26.2 kDa; The forward primer has catatgATG, so added N-terminal Met residues are likely; A C-terminal His tag from the vector is surmised
For B2, the “stoichiometry N” value [1] was 6 and the “stoichiometry N” value [2] was 4.

B3: full-length Synechocystis sp. PCC 6803 histidine kinase 2 (Hik2) (enzyme, UniProt P73276 1-434, looked up)
chain: MAGSISSMYSPSAGLISLCQSQVRLLQQGLRVDWCGVYLNQEETEQGLVPLVVSHGSTLVESESYGLISLPQGEVSPPMDDFSLPAVPVGVGQLSRRSRLEPPPFDADKRLVLPLVYGEEMVGLLVIHRSQGQWHGEEMMQLEAIAKSLAVACLLDQQQDWYRQAWEEQNQQYQWERQHWADLLHQLRNPLTALKTFSKLLLKRWHGDNKSQQVVEGIVRQGEHLQELLQSFEASQSQGPEAVPLLSSSPVTTIQVLPPADRVETMPLANFSLGEVLPPILLAHQAIAAERNITLTAQIALIDTVVMANRLALREVVNNLLDNGIKYTPNGGLVEVSLALEKVSSSGMDWATLAIADTGYGIPPEDQQKIFERNYRGVQGRGSINGTGLGLAIVADLVAQMGGKITVTSPNGLSRDPDQPGSTFTLWLRSGEQV
notes: Histidine kinase 2 (Hik2), slr1147, Synechocystis sp; PCC 6803, full length; calculated molecular mass 48.5 kDa
B3 was tested, and the “stoichiometry N” value [3] was 2 and 3 and the “stoichiometry N” value [4] was 4 and 6 and 8.

B4: truncated DHp domain of Thermosynechococcus elongatus BP-1 Hik2 (domain or fragment, UniProt Q8DMC5 142-270, looked up)
chain: SHSPAQPLDQRQQRFDDLLHQLRNPVAAIRTFVKLLLKRLEPDHKGRPLAEGIAKETERLMALLEDYRQQRNDIPALTGSQPLPLAGKPLDLAETLLPLISAAQARAEMEGKTFVVEIPPQLPPIWLEE
notes: Hik2 (tlr0195), Thermosynechococcus elongatus BP-1, DHp domain, amino acids 142-270; calculated molecular mass 15.1 kDa; The forward primer has catatgATG, so added N-terminal Met residues are likely; A C-terminal His tag from the vector is surmised
In the case of B4, the “stoichiometry N” value [1] is reported as 8 and the “stoichiometry N” value [2] is reported as 6.
